Data taken from publication doi:10.1101/2024.04.19.590210.

Target: TF-HIS-BBX13 (BBX13/COL15) (Arabidopsis thaliana, UniProt Q9C7E8 1-433)
Assay: EMSA

TF-HIS-BBX13 (BBX13/COL15), sequence (Q9C7E8 whole entry): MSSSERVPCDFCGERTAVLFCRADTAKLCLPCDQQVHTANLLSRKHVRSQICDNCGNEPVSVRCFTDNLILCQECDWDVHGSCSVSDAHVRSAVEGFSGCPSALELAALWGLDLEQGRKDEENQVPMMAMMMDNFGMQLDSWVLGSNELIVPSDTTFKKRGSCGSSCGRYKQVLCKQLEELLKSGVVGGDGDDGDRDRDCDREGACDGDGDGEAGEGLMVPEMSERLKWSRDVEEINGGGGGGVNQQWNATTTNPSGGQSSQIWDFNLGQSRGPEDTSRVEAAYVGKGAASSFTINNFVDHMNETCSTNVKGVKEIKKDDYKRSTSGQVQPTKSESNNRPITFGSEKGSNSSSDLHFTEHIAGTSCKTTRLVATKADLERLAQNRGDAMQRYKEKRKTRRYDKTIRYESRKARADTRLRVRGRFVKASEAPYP

B1: FT-CORE2 EMSA probe (FT Biot) (dsDNA)
DNA 1: ATCAATAGACAAGAAAAAGATTGTGGTTATGATTTCACCGACCCGAGTTAATG
DNA 2: CATTAACTCGGGTCGGTGAAATCATAACCACAATCTTTTTCTTGTCTATTGAT
B1: binds.
